The results in this text go back to patent US20180118786A1 (ECOLE POLYTECHNIQUE FEDERALE DE LAUSANNE EPFL, published 2018).

For one experiment, the target named is trypsin (human, UniProt P07477 24-247). As to the kind of experiment: protease inhibition assay.
Experiment [1] deals with T1, mouse FXIIa (mouse, UniProt Q80YC5 20-597, limits assumed).
T1 construct: also called mouse α-FXIIa (MFXIIA; Molecular Innovations)
T1 sequence (looked up): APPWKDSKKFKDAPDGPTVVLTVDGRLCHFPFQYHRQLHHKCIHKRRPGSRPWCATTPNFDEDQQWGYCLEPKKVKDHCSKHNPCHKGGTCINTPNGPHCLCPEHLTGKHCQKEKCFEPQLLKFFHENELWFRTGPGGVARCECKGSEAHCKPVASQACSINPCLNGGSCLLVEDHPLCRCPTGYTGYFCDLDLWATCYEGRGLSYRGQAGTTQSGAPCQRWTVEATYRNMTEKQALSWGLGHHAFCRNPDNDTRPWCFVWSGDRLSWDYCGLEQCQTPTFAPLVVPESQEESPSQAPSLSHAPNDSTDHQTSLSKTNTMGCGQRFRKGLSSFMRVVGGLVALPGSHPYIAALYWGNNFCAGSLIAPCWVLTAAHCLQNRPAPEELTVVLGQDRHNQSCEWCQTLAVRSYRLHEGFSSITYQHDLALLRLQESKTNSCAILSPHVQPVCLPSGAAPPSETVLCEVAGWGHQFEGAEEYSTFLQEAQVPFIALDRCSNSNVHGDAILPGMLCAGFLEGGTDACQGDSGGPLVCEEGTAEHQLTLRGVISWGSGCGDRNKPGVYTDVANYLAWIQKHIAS
Description: protease inhibition assay, fluorogenic substrate.

A further experiment addresses T2, plasma kallikrein (human, UniProt P03952 20-638).
T2 construct: also called PK
As to the kind of experiment: protease inhibition assay, specificity testing.

Experiment [2] concerns the target T1, mouse FXIIa. Description: protease inhibition assay.
The target in experiment [3] is T3, human β-FXIIa (HFXIIAB; Molecular Innovations) (human, UniProt P00748 354-362; P00748 373-615, limits assumed).
T3 construct: domain: catalytic domain; Bought; also called human b-FXIIa; human FXIIa
Description: protease inhibition assay.

The target in experiment [4] is T3, human β-FXIIa (HFXIIAB; Molecular …). Description: protease inhibition assay. The source holds these as a separate data set.
For experiment [5] the target is unchanged. Description: protease inhibition assay (FIG. 6).
The target of another experiment is plasmin (human, UniProt P00747 97-810, limits assumed). Description: protease inhibition assay.
A further experiment addresses T4, factor XIa (human, UniProt P03951 19-625).
T4 construct: also called FXIa
Description: protease inhibition assay.

Experiment [6] has as its target T3, human β-FXIIa (HFXIIAB; Molecular …). Description: protease inhibition assay. The source holds these as a separate data set.

Starred links: 1 amine or outer side, 2 acyl side, 3 side chain; linkers in the order of their positions; H or OH if unused. Positions of bridges follow the written chain, without caps; N, C: chain ends. Non-standard residues stand in square brackets, D forms with d. No end group written: not given here. TATA = O=C(CC[*:1])N1CN(C(=O)CC[*:2])CN(C(=O)CC[*:3])C1 Bounds are passed on as bounds.

T3 sequence (P00748 373-615 limits assumed, one chain of several): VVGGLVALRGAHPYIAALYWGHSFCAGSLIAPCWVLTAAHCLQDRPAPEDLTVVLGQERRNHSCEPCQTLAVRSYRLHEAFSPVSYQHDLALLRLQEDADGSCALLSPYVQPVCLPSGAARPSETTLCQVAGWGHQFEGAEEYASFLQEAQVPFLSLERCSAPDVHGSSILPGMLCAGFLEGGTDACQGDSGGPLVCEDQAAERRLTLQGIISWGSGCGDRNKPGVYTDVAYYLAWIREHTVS
Sequence of plasmin (P00747 97-810 limits assumed): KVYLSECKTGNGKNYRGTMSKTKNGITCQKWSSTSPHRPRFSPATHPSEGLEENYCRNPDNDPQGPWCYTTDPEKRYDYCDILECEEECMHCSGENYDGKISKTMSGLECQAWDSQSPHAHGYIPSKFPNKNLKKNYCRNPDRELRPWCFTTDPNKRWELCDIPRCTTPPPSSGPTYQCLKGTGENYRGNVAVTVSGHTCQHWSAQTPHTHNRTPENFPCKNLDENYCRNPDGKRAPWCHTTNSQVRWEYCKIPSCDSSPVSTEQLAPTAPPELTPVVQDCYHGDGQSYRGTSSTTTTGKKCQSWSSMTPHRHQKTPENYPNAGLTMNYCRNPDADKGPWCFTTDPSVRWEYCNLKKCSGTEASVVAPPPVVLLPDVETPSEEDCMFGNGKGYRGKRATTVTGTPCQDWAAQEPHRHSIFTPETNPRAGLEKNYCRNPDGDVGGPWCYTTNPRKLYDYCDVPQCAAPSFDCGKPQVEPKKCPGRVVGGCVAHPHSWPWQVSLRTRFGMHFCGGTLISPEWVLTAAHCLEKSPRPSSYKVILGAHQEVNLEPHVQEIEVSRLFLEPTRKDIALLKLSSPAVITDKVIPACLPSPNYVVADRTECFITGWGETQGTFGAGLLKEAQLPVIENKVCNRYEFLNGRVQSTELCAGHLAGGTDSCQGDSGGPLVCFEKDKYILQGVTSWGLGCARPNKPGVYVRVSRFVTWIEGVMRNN
T2 sequence (P03952 20-638 limits assumed): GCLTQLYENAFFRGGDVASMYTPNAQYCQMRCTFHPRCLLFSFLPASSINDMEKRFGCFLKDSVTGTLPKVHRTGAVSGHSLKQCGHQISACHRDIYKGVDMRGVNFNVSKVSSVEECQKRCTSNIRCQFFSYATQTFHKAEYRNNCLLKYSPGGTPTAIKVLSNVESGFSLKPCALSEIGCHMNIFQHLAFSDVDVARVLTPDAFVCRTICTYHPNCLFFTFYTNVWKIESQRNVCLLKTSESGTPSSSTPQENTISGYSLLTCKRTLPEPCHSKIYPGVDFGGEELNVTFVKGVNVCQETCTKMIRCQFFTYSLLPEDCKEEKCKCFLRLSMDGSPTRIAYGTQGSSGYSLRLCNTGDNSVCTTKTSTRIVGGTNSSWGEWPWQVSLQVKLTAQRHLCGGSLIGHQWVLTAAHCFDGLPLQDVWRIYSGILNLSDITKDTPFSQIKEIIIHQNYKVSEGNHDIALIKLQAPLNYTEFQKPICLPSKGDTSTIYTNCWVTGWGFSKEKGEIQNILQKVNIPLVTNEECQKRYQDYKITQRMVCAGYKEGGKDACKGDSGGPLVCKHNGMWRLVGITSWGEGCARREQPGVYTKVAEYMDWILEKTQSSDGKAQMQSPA

B1: FXII618 (peptide)
peptide: H-RCFRLPCRQLRCR-NH2
modifications: linker 2-7-12 via TATA
notes: Bicyclic; free N-terminus; also called peptide 1; bicyclic peptide 1
Consider B1, for which the inhibition constant Ki with trypsin turned out to be 5000 nM; in the experiment with mouse FXIIa [1], 252 nM. Also, the binding result with plasma kallikrein is “binds”.

B2: JS17m (FXII618, Arg8 to His) (peptide)
peptide: H-RCFRLPCHQLRCR-NH2
modifications: linker 2-7-12 via TATA
SMILES: CC(C)C[C@@H]1NC(=O)[C@H](CCC(N)=O)NC(=O)[C@H](Cc2c[nH]cn2)NC(=O)[C@@H]2CSCCC(=O)N3CN(CN(C3)C(=O)CCSC[C@H](NC(=O)[C@@H](N)CCCNC(=N)N)C(=O)N[C@@H](Cc3ccccc3)C(=O)N[C@@H](CCCNC(=N)N)C(=O)N[C@@H](CC(C)C)C(=O)N3CCC[C@H]3C(=O)N2)C(=O)CCSC[C@@H](C(=O)N[C@@H](CCCNC(=N)N)C(N)=O)NC(=O)[C@H](CCCNC(=N)N)NC1=O
notes: also called Arg8→His (H)
Turning to B2, the Ki with mouse FXIIa [2] turned out to be 80 nM; in [3], 21.6 nM.

B3: peptide 18 (peptide 2, Pro6 to leucine) (peptide)
peptide: RCFRLLCRQLRCRW-NH2
modifications: linker 2-7-12 via TATA; N-terminus assumed
SMILES: CC(C)C[C@@H]1NC(=O)[C@H](CCC(N)=O)NC(=O)[C@H](CCCNC(=N)N)NC(=O)[C@@H]2CSCCC(=O)N3CN(CN(C3)C(=O)CCSC[C@H](NC(=O)[C@@H](N)CCCNC(=N)N)C(=O)N[C@@H](Cc3ccccc3)C(=O)N[C@@H](CCCNC(=N)N)C(=O)N[C@@H](CC(C)C)C(=O)N[C@@H](CC(C)C)C(=O)N2)C(=O)CCSC[C@@H](C(=O)N[C@@H](CCCNC(=N)N)C(=O)N[C@@H](Cc2c[nH]c3ccccc23)C(N)=O)NC(=O)[C@H](CCCNC(=N)N)NC1=O
Regarding B3, the “fold reduction of activity vs peptide 2” value in experiment [4] is less than 2 fold. Moreover, the Ki in experiment [5] is less than 100 nM.

B4: corn trypsin inhibitor (other, UniProt P01088 29-155, looked up)
chain: SAGTSCVPGWAIPHNPLPSCRWYVTSRTCGIGPRLPWPELKRRCCRELADIPAYCRCTALSILMDGAIPPGPDAQLEGRLEDLPGCPREVQRGFAATLVTEAECNLATISGVAECPWILGGGTMPSK
notes: also called CTI
B4: the Ki in the experiment with trypsin is 7 nM; with plasmin, 5000 nM; in the experiment with factor XIa, 12500 nM.

B5: JS7m (FXII618, Arg1 to D-Arg-D-Ser) (peptide)
peptide: H-[dR][dS]CFRLPCRQLRCR-NH2
modifications: linker 3-8-13 via TATA
SMILES: CC(C)C[C@@H]1NC(=O)[C@H](CCC(N)=O)NC(=O)[C@H](CCCNC(=N)N)NC(=O)[C@@H]2CSCCC(=O)N3CN(CN(C3)C(=O)CCSC[C@H](NC(=O)[C@@H](CO)NC(=O)[C@H](N)CCCNC(=N)N)C(=O)N[C@@H](Cc3ccccc3)C(=O)N[C@@H](CCCNC(=N)N)C(=O)N[C@@H](CC(C)C)C(=O)N3CCC[C@H]3C(=O)N2)C(=O)CCSC[C@@H](C(=O)N[C@@H](CCCNC(=N)N)C(N)=O)NC(=O)[C@H](CCCNC(=N)N)NC1=O
notes: also called Arg1→D-Arg-D-Ser (rs)
For the molecule B5, in experiment [6], the Ki was 18 nM.

Usually Ki stands for the equilibrium dissociation constant of an inhibitor or competing ligand from its target.
